The data set “cryo-EM structure” deals with the molecule itself. Description: cryo-EM structure.
Another data set addresses MZT2:GST-GCP2-NHD (human, UniProt Q6P582 1-158; Q9BSJ2 1-110). Description: pull-down.

Some results are limits rather than exact numbers.

MZT2:GST-GCP2-NHD, sequence (Q6P582 whole entry, chain 1 of 2): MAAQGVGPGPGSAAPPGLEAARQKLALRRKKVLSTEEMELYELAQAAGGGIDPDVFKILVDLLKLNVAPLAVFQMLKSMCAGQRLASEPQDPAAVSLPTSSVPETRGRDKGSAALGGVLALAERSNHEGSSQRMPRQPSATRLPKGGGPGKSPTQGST
MZT2:GST-GCP2-NHD, sequence (Q9BSJ2 1-110, chain 2 of 2): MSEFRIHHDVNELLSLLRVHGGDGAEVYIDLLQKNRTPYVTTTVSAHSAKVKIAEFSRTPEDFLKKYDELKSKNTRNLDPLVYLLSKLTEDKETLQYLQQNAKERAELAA

As to TVSPTRARNMKDFENQITELKKENFNLKLRIYFLEERMQQEFHGPTEHIY (domain or fragment, human, UniProt Q96SN8 51-100, looked up) [CDK5RAP2(51-100)], in the data set “cryo-EM structure”, the binding result is “binds”.

B1: CDK5RAP2(44-93) (domain or fragment, human)
chain: SNIGSGGTPSTGSSLPNVSEETVSPTRARNMKDFENQITELKKENFNLKLRIYFLEERMQQEFH
On to B1, for which the Kd with MZT2:GST-GCP2-NHD was not below 10 µM.

By Kd is commonly meant the free concentration of one partner at which half of the binding sites on the other are occupied at equilibrium, for simple one-to-one binding. Lower therefore signals higher affinity.

For the origin of these results see doi:10.1101/2023.12.14.571518 (bioRxiv, 2023).
